Experimental data reported in patent US20220332829A1 (NANJING SANHOME PHARMACEUTICAL, published 2022).

How the values were obtained:
[1] = molecular target: T1, B7-H3 on surface of tumor cell (786-0, MDA-MB-231, Raji-B7-H3 cells) (human, UniProt Q5ZPR3 29-534); assay: FACS on Raji-B7-H3 cells
T1 construct: whole, on cells; The making of Raji-B7-H3 cells is not described; also called B7-H3 on the surface of tumor cells; human B7-H3
T1 sequence (looked up): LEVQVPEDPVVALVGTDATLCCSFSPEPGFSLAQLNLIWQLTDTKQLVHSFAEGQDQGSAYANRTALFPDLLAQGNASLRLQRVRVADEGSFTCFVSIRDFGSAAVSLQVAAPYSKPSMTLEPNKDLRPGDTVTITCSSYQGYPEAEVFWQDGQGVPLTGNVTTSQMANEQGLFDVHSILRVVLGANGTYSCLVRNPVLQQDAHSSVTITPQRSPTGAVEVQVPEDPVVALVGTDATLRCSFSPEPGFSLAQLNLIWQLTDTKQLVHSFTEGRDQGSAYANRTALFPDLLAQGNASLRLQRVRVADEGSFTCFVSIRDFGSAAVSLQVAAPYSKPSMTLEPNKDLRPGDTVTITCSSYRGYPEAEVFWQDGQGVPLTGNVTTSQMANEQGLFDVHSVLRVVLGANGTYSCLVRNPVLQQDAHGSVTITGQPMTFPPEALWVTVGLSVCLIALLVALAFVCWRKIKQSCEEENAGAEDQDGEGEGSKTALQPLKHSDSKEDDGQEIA
Procedure: The binding activity of antibodies to B7-H3 on the surface of tumor cells was analyzed by FACS. Mean fluorescence intensity (MFI) and EC₅₀ detected by FACS indicate the binding activity of the antibody to cells. After 786-0 and MDA-MB-231 cells were digested, they were resuspended in 2% FBS-PBS solution and counted. After raji-B7-H3 cells were collected, they were resuspended in 2% FBS-PBS and counted. The above cells were plated in a cell plate with 1×10⁵ cells per well. The anti-B7-H3 antibody of the present disclosure was used as the primary antibody and added to cell plates in gradient dilution starting from 20 μg/mL with a total of 8 concentrations: 20,000 ng/mL, […], 2,000 ng/mL, 400 ng/mL, 80 ng/mL, 16 ng/mL, 3.2 ng/mL, and 0.64 ng/mL respectively. The plates were incubated at 4° C. for 1 h with hBRCA84D as the positive control antibody. PE-Anti-Human IgG (Biolegend, Cat. No. 409303, 1.25 μl/well) was used as the secondary antibody, washed, and detected for the fluorescence intensity generated by the binding of the antibody to the cell surface by a flow cytometer.

[2] = molecular target: T2, human 4Ig-B7-H3-His protein (human, UniProt Q5ZPR3 29-466); assay: Biacore X100 SPR, 4Ig-B7-H3-His coupled to CM5 chip, antibody injected
T2 construct: also called human B7-H3 protein
T2 sequence: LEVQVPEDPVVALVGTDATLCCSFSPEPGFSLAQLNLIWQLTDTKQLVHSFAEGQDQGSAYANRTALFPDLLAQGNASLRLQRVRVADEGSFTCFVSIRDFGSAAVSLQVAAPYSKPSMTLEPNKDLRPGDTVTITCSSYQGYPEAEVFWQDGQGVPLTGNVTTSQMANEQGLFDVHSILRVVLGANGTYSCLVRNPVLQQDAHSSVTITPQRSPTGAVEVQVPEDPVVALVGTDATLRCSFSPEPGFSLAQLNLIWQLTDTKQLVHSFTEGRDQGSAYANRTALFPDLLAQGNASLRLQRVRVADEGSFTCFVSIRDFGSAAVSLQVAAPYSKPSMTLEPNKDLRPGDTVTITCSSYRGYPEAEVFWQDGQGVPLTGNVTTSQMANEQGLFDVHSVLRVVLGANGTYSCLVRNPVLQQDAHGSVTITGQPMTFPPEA
Description: The humanized anti-B7-H3 antibodies prepared in Example 4 were subjected to affinity assay by Biacore. The antigen 4Ig-B7-H3-His was first coupled to the surface of a CM5 chip (GE, Cat. No. BR100012), and the active groups of the uncoupled protein were blocked with ethanolamine. After the baseline was stable, the hu39-01, hu65-13, and hBRCA84D antibodies were respectively diluted in equal proportions. The diluted antibodies of each concentration were placed on the sample injection tray of the instrument in sequence, and the program was set to inject samples respectively.

[3] = molecular target: T1, B7-H3 on surface of tumor cell (786-0, …); assay: cell-based or functional assay
[4] = molecular target: T2, human 4Ig-B7-H3-His protein; assay: ELISA, plate coated with human 4Ig-B7-H3-His, detection with anti-human IgG HRP, OD450
Procedure: The binding activity of antibodies was analyzed by ELISA. 96-well ELISA plates were coated with human 4Ig-B7-H3-His protein or 2Ig-B7-H3-His protein (1 μg/well, prepared in Examples 1 and 2) and incubated overnight at 4° C. The plates were washed 3 times with 1×PBST and then blocked with 5% skim milk at 37° C. for 2 h. After washing 3 times with 1×PBST, the anti-B7-H3 antibody of the present disclosure was used as the primary antibody and added to the ELISA plates in 5-fold gradient dilution starting from 2 μg/mL with a total of 8 concentrations: 2,000 ng/mL, 400 ng/mL, 80 ng/mL, 16 ng/mL, 3.2 ng/mL, 0.64 ng/mL, 0.128 ng/mL and 0.0256 ng/mL respectively. The plates were incubated at 37° C. for 2 h with hBRCA84D as the positive control antibody. After washing 5 times with 1×PBST, Anti-Human IgG HRP (Jackson, 109-035-003, 1:5000) was used as the secondary antibody and incubated at 37° C. for 1 h. After washing 5 times with 1×PBST, color developing solution TMB was added to the plate, and microplate reader (Thermo, Multiskan FC) was used to read OD450 value after termination of the reaction. EC₅₀ was generated by GraphPad.

Mean fluorescence intensity (MFI) [1]: 233000
Kd [2]: 0.455 nM
koff [2]: 0.000111 s⁻¹
kon [2]: 243000 M⁻¹ s⁻¹
EC50 Ratio (ADCC, LDH method; EC50 of hBRCA84D divided by EC50 of the antibody; 786-0 target cells, human PBMC effectors) [3]: 1
EC50 (read off the curve) [4]: ~5 ng/mL
B1: hBRCA84D (antibody, human IgG1, kappa, V domains shown)
VH: EVQLVESGGGLVQPGGSLRLSCAASGFTFSSFGMHWVRQAPGKGLEWVAYISSDSSAIYYADTVKGRFTISRDNAKNSLYLQMNSLRDEDTAVYYCGRGRENIYYGSRLDYWGQGTTVTVSS
VL: DIQLTQSPSFLSASVGDRVTITCKASQNVDTNVAWYQQKPGKAPKALIYSASYRYSGVPSRFSGSGSGTDFTLTISSLQPEDFATYYCQQYNNYPFTFGQGTKLEIKR
notes: Humanized antibody from WO2011/109400; also called positive control antibody hBRCA84D; control antibody hBRCA84D
